Assay results taken from the supplement of paper PMC10126150.
± gives the standard deviation of the averaged measurements.

Tested on: ATP
Assay: switch fluorescence ratio, 500 uM ATP over buffer (Cy3 cluster intensity, sum of 5 cycles each) (fold (ratio)); higher = stronger signal-on switching upon ATP binding; sequences stand for … in TCGTCGGCAGCGTCAGATGTGTATAAGAGACAGTTTTTTTTTTTTTTTTTTTTTTTTT…TC
Conditions: aptamer strand: ATP DNA aptamer (quencher-CACCTGGGGGAGTATTGCGGAGGAAGG + anchor), 100 nM annealed; ATP concentration: 500 uM
Summary of the method: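 Switching-strand clusters labelled with Cy3 on a modified Illumina MiSeq flow-cell were annealed to 100 nM quencher-labelled ATP aptamer, imaged in selection buffer, and re-imaged after 15 min with 500 uM ATP at 22 °C. This was done over five cycles with NaOH stripping and re-annealing in between. The fluorescence ratio is summed target-cycle over summed buffer-cycle Cy3 intensity per cluster, averaged per switch-domain sequence, excluding clusters outside 100-1000 RFU.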
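Also: ATP exposure 15 min at 22 °C before imaging.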

| Sequence | switch fluorescence ratio |
| --- | --- |
| TGTTTGTTGG | 0.9887 ± 0.009 |
| ACAAGAAAGG | 1.01 ± 0.035 |
| AGAATTGGCA | 1 ± 0.037 |
| ATGAGAGCGG | 0.996 ± 0.096 |
| GCTAGGTGTA | 1.12 ± 0.043 |
| TGAGTCTTAA | 1.01 ± 0.027 |
| GCGTATGCCC | 1.019 ± 0.0062 |
| GATTTTCGCG | 1.02 ± 0.037 |
| GGGGTGTAGA | 1.02 ± 0.03 |
| GAAGGAAGTG | 1 ± 0.034 |
| TCGTGTGTTC | 1.022 ± 0.0047 |
| TGAGGTACGG | 1.01 ± 0.029 |
| TAAAGCGAAC | 1.29 ± 0.098 |
| ACAGTTAAGT | 1.04 ± 0.039 |
| CAGGGGCCGG | 0.978 ± 0.018 |
| GAAAAAGCAA | 1.14 ± 0.054 |
| ATTACATGTA | 0.9871 ± 0.0098 |
| GCCCTGGAAC | 1.01 ± 0.022 |
| CCTCGTGTTT | 1.08 ± 0.0061 |
| GTGGCAAGTT | 0.97 ± 0.017 |
| TGGGGGAGTT | 0.994 ± 0.026 |
| CTAGTAAAGT | 0.977 ± 0.037 |
| GTTGGGCGGG | 0.991 ± 0.035 |
| GCAGTTTTA | 1 ± 0.014 |
| TTGGGTATGC | 0.99 ± 0.046 |
| TTCGGACGGT | 1.04 ± 0.06 |
| TAGGGGGATT | 1.014 ± 0.0089 |

| Sequence | switch fluorescence ratio |
| --- | --- |
| TGGTTGGTGC | 1.16 ± 0.17 |
| CCGGGAGCAG | 1.95 ± 0.61 |
| ATGATCCGTT | 1.001 ± 0.0059 |
| TGTTGTTGTT | 1.01 ± 0.086 |
| GGTTAAGATG | 0.986 ± 0.01 |
| TGAAGGTTGG | 1.02 ± 0.025 |
| CCAAGGACAC | 1.1498 ± 0.001 |
| TTTTTCCAAA | 1 ± 0.041 |
| TGCTTCATGT | 0.985 ± 0.027 |
| CGGGGCTGGA | 0.984 ± 0.017 |
| TAGGGGTATG | 1.06 ± 0.096 |
| TTTTTGTTAG | 0.965 ± 0.024 |
| CGTTTTGCGG | 1.04 ± 0.052 |
| AGTTCGGCTA | 0.998 ± 0.036 |
| GGGGTTTTAA | 0.988 ± 0.02 |
| AAGCTCAATC | 1.05 ± 0.032 |
| CATTTAGGAT | 0.985 ± 0.018 |
| ACGGGGGGAA | 1.02 ± 0.019 |
| TTTATAAATG | 1.014 ± 0.0017 |
| TCAAGGGTCC | 0.996 ± 0.07 |
| TGATTTTCGG | 0.974 ± 0.032 |
| TATAATCGTG | 0.988 ± 0.021 |
| AAAAAACTTT | 1.05 ± 0.027 |
| GGTTGGTCTT | 0.974 ± 0.041 |
| AATTGCCGCG | 1.02 ± 0.055 |
| GGGTTAATGG | 0.986 ± 0.011 |
| TCGCTTTT | 1.02 ± 0.02 |

| Sequence | switch fluorescence ratio |
| --- | --- |
| TGAAGAATGT | 1.02 ± 0.017 |
| AGGGCCGTTG | 0.996 ± 0.035 |
| TCATGAACAT | 1.001 ± 0.0082 |
| TAAGGCTGAA | 1.02 ± 0.039 |
| GATCATGCCT | 1.048 ± 0.008 |
| TGTGTTTCGT | 1.007 ± 0.0084 |
| CGGGGGCTT | 1.002 ± 0.0044 |
| ATCTGGTCAT | 0.972 ± 0.016 |
| ATCGTGGTCA | 0.987 ± 0.018 |
| TAGGTCAGAA | 0.989 ± 0.025 |
| TTATAGGAAC | 1.02 ± 0.013 |
| GGGGGGCATG | 0.992 ± 0.035 |
| TGGTTGATGA | 0.98 ± 0.064 |
| TGCCGGTAAA | 1.01 ± 0.051 |
| TCTAAGTATT | 1.02 ± 0.026 |
| AGCTTCTAAC | 1.025 ± 0.0036 |
| GAGACAGGAT | 1.01 ± 0.04 |
| TACTTGAGGC | 1.11 ± 0.21 |
| CCGGTGTTTG | 0.987 ± 0.021 |
| CTATCATCAT | 0.9978 ± 0.0084 |
| GGTTTTGGCT | 0.991 ± 0.01 |
| ATGCATGGTT | 1.02 ± 0.054 |
| CCAGTGGGGC | 1.01 ± 0.072 |
| AGGTCGGCAA | 1.02 ± 0.014 |
| ATAGGCACAT | 1.03 ± 0.029 |
